The values that follow come from patent publication US20220411477A1 (MONASH UNIVERSITY, published 2022).

Where a chain is given by its changes, count along the chain named. Names and notes keep the numbering of the source.

The target of this assay is T1, AMH-specific type II receptor, AMHR2 (UniProt Q16671 18-573, limits assumed).
T1 sequence (looked up): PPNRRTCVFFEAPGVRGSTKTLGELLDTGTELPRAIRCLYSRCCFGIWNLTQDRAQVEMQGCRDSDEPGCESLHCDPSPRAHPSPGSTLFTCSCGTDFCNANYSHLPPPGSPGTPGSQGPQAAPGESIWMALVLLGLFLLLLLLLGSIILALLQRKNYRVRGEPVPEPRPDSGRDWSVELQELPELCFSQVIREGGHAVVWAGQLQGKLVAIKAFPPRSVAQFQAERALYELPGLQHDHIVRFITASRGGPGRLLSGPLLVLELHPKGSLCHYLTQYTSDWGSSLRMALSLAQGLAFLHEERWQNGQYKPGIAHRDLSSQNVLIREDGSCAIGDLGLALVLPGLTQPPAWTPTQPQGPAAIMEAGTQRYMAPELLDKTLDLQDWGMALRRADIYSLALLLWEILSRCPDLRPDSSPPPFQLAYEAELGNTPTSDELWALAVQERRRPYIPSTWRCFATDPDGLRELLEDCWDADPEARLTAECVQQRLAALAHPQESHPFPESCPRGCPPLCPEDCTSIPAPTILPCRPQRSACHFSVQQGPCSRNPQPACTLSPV
The experiment in a line: cell-based or functional assay.

B1: hAMH+SCUT+RSA (Wild type) AMH (ligand)
chain 1: HHHHHHPAVGTSGLIFREDLDWPPGSPQEPLCLVALGGDSNGSSSPLRVVGALSAYEQAFLGAVQRARWGPRDLATFGVCNTGDRQAALPSLRRLGAWLQDPGGQRLVVLHLEEVTWEPTPSLRFQEPPPGGAGPPELALLVLYPGPGPEVTVTRAGLPGAQSLCPSRDTRYLVLAVDRPAGAWRGSGLALTLQPRGEDSRLSTARLQALLFGDDHRCFTRMTPALLLLPRSEPAPLPAHGQLDTVPFPPPRPSAELEESPPSADPFLETLTRLVRALRVPPARASAPRLALDPDALAGFPQGLVNLSDPAALERLLDGEEPLLLLLRPTAATTGDPAPLHDPTSAPWATALARRVAAELQAAAAELRSLPGLPPATAPLLARLLALCPGGPGGLGDPLRALLLLKALQGLRVEWRGRDPRGPGISSRKKR
chain 2: SVSSSAGATAADGPCALRELSVDLRAERSVLIPETYQANNCQGVCGWPQSDRNPRYGNHVVLLLKMQARGAALARPPCCVPTAYAGKLLISLSEERISAHHVPNMVATECGCR
Take B1: the “AMH activity relative to wild type (%)” value is 100% and the “EC50 in COV434 BRE-Luc assay” value is about 6 ng/mL.

B2: hAMH+SCUT+RSA G533H mutant (ligand)
chain 1: B1 chain 1
chain 2: B1 chain 2 with G86H
As for B2, the “AMH activity relative to wild type (%)” value was determined as 100% and the “EC50 in COV434 BRE-Luc assay” value is about 6 ng/mL.

B3: hAMH+SCUT+RSA G533S mutant (ligand)
chain 1: B1 chain 1
chain 2: B1 chain 2 with G86S
With B3, the “AMH activity relative to wild type (%)” value was 350%, the “EC50 in COV434 BRE-Luc assay” value was about 1.8 ng/mL, the “Maximal response relative to wild-type (%)” value is about 140% and the “Potency relative to ‘wild-type’” value was about 3 fold more potent.

B4: hAMH mutant A546M (ligand)
chain 1: B1 chain 1
chain 2: B1 chain 2 with A99M
As for B4, the “Maximal response relative to wild-type (%)” value was about 5%.

B5: hAMH mutant L536M (ligand)
chain 1: B1 chain 1
chain 2: B1 chain 2 with L89M
Regarding B5, the “Maximal response relative to wild-type (%)” value is about 80% and the “Potency relative to ‘wild-type’” value was about 3 fold less potent.

B6: hAMH+SCUT+RSA L535M mutant (ligand)
chain 1: B1 chain 1
chain 2: B1 chain 2 with L88M
For B6, the “AMH activity relative to wild type (%)” value was 100% and the “EC50 in COV434 BRE-Luc assay” value is about 6 ng/mL.

B7: hAMH+SCUT+RSA G533A mutant (ligand)
chain 1: B1 chain 1
chain 2: B1 chain 2 with G86A
Take B7: the “AMH activity relative to wild type (%)” value turned out to be 250%, the “EC50 in COV434 BRE-Luc assay” value was about 2.8 ng/mL and the “Potency relative to ‘wild-type’” value was about 2 fold more potent.

B8: hAMH mutant L536I (ligand)
chain 1: B1 chain 1
chain 2: B1 chain 2 with L89I
In the case of B8, the “Maximal response relative to wild-type (%)” value was about 65% and the “Potency relative to ‘wild-type’” value was about 7 fold less potent.

B9: hAMH+SCUT+RSA double mutant G533A+L535M (ligand)
chain 1: B1 chain 1
chain 2: B1 chain 2 with G86A, L88M
For B9, the “AMH activity relative to wild type (%)” value turned out to be 100% and the “EC50 in COV434 BRE-Luc assay” value was about 6 ng/mL.

B10: hAMH+SCUT+RSA G533K mutant (ligand)
chain 1: B1 chain 1
chain 2: B1 chain 2 with G86K
In the case of B10, the “AMH activity relative to wild type (%)” value was determined as 500%, the “EC50 in COV434 BRE-Luc assay” value is about 1.2 ng/mL, the “Maximal response relative to wild-type (%)” value was about 190% and the “Potency relative to ‘wild-type’” value was about 5 fold more potent.

B11: hAMH+SCUT+RSA H548K mutant (ligand)
chain 1: B1 chain 1
chain 2: B1 chain 2 with H101K
In the case of B11, the “AMH activity relative to wild type (%)” value was 100% and the “EC50 in COV434 BRE-Luc assay” value was about 6 ng/mL.

B12: hAMH mutant S538A (ligand)
chain 1: B1 chain 1
chain 2: B1 chain 2 with S91A
Turning to B12, the “Maximal response relative to wild-type (%)” value is about 65% and the “Potency relative to ‘wild-type’” value was about 4 fold less potent.
